Square brackets hold non-standard residues; d marks the D form. Phe(3-F) = N[C@@H](Cc1cccc(F)c1)C(=O)O; Phe(4-F) = N[C@@H](Cc1ccc(F)cc1)C(=O)O; 1Nal = N[C@@H](Cc1cccc2ccccc12)C(=O)O; 2Nal = N[C@@H](Cc1ccc2ccccc2c1)C(=O)O; hPhe = N[C@@H](CCc1ccccc1)C(=O)O; Tic = O=C(O)[C@@H]1Cc2ccccc2CN1; Cha = N[C@@H](CC1CCCCC1)C(=O)O
biological target: CDK2/cyclin A (UniProt P24941 1-298; P20248 1-432); assay: cell-based or functional assay

Binder	Relative activity, Kinase Inhibition (CDK2/cyclin A kinase assay, pRb substrate, [ATP] = 100 µM)
H-HAKRRLI[2Nal]-NH2 (SMILES CC[C@H](C)[C@H](NC(=O)[C@H](CC(C)C)NC(=O)[C@H](CCCNC(=N)N)NC(=O)[C@H](CCCNC(=N)N)NC(=O)[C@H](CCCCN)NC(=O)[C@H](C)NC(=O)[C@@H](N)Cc1c[nH]cn1)C(=O)N[C@@H](Cc1ccc2ccccc2c1)C(N)=O) [H-His-Ala-Lys-Arg-Arg-Leu-Ile-2Nap-NH2]	1.2 relative to H-His-Ala-Lys-Arg-Arg-Leu-Ile-Phe-NH2 (=1)
H-HAKRRLI[Tic]-NH2 (SMILES CC[C@H](C)[C@H](NC(=O)[C@H](CC(C)C)NC(=O)[C@H](CCCNC(=N)N)NC(=O)[C@H](CCCNC(=N)N)NC(=O)[C@H](CCCCN)NC(=O)[C@H](C)NC(=O)[C@@H](N)Cc1c[nH]cn1)C(=O)N1Cc2ccccc2C[C@H]1C(N)=O) [H-His-Ala-Lys-Arg-Arg-Leu-Ile-Tic-NH2]	0.3 relative to H-His-Ala-Lys-Arg-Arg-Leu-Ile-Phe-NH2 (=1)
H-HAKRRLI[hPhe]-NH2 (SMILES CC[C@H](C)[C@H](NC(=O)[C@H](CC(C)C)NC(=O)[C@H](CCCNC(=N)N)NC(=O)[C@H](CCCNC(=N)N)NC(=O)[C@H](CCCCN)NC(=O)[C@H](C)NC(=O)[C@@H](N)Cc1c[nH]cn1)C(=O)N[C@@H](CCc1ccccc1)C(N)=O) [H-His-Ala-Lys-Arg-Arg-Leu-Ile-Hof-NH2]	< 0.1 relative to H-His-Ala-Lys-Arg-Arg-Leu-Ile-Phe-NH2 (=1)
H-HAKRRLI[Phe(3-F)]-NH2 (SMILES CC[C@H](C)[C@H](NC(=O)[C@H](CC(C)C)NC(=O)[C@H](CCCNC(=N)N)NC(=O)[C@H](CCCNC(=N)N)NC(=O)[C@H](CCCCN)NC(=O)[C@H](C)NC(=O)[C@@H](N)Cc1c[nH]cn1)C(=O)N[C@@H](Cc1cccc(F)c1)C(N)=O) [H-His-Ala-Lys-Arg-Arg-Leu-Ile-mFPhe-NH2]	0.8 relative to H-His-Ala-Lys-Arg-Arg-Leu-Ile-Phe-NH2 (=1)
H-HAKRRLIY-NH2 [H-His-Ala-Lys-Arg-Arg-Leu-Ile-Tyr-NH2]	0.3 relative to H-His-Ala-Lys-Arg-Arg-Leu-Ile-Phe-NH2 (=1)
H-HAKRRLI[Cha]-NH2 (SMILES CC[C@H](C)[C@H](NC(=O)[C@H](CC(C)C)NC(=O)[C@H](CCCNC(=N)N)NC(=O)[C@H](CCCNC(=N)N)NC(=O)[C@H](CCCCN)NC(=O)[C@H](C)NC(=O)[C@@H](N)Cc1c[nH]cn1)C(=O)N[C@@H](CC1CCCCC1)C(N)=O) [H-His-Ala-Lys-Arg-Arg-Leu-Ile-Cha-NH2]	< 0.1 relative to H-His-Ala-Lys-Arg-Arg-Leu-Ile-Phe-NH2 (=1)
H-HAKRRLIW-NH2 [H-His-Ala-Lys-Arg-Arg-Leu-Ile-Trp-NH2]	0.3 relative to H-His-Ala-Lys-Arg-Arg-Leu-Ile-Phe-NH2 (=1)
H-HAKRRLIK-NH2 [H-His-Ala-Lys-Arg-Arg-Leu-Ile-Lys-NH2]	< 0.1 relative to H-His-Ala-Lys-Arg-Arg-Leu-Ile-Phe-NH2 (=1)
H-HAKRRLI[1Nal]-NH2 (SMILES CC[C@H](C)[C@H](NC(=O)[C@H](CC(C)C)NC(=O)[C@H](CCCNC(=N)N)NC(=O)[C@H](CCCNC(=N)N)NC(=O)[C@H](CCCCN)NC(=O)[C@H](C)NC(=O)[C@@H](N)Cc1c[nH]cn1)C(=O)N[C@@H](Cc1cccc2ccccc12)C(N)=O) [H-His-Ala-Lys-Arg-Arg-Leu-Ile-1Nap-NH2]	0.2 relative to H-His-Ala-Lys-Arg-Arg-Leu-Ile-Phe-NH2 (=1)
H-HAKRRLI[Phe(4-F)]-NH2 (SMILES CC[C@H](C)[C@H](NC(=O)[C@H](CC(C)C)NC(=O)[C@H](CCCNC(=N)N)NC(=O)[C@H](CCCNC(=N)N)NC(=O)[C@H](CCCCN)NC(=O)[C@H](C)NC(=O)[C@@H](N)Cc1c[nH]cn1)C(=O)N[C@@H](Cc1ccc(F)cc1)C(N)=O) [H-His-Ala-Lys-Arg-Arg-Leu-Ile-pFPhe-NH2]	1 relative to H-His-Ala-Lys-Arg-Arg-Leu-Ile-Phe-NH2 (=1)

— patent publication US20040176301A1 (CYCLACEL, published 2004)
